B1: MIA2 (parent)
chain: NSISSDKEATVPCTEILTEKKDTI

Variants of: B1
Assay: protein stability index of a GFP-peptide fusion (GPS, HEK-293T) (PSI 1-6); higher = more stable
Conditions: c terminus: a fixed tail appended
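Further: lentivirally expressed fusions sorted by FACS into six bins by GFP to DsRed ratio, PSI derived from sequencing read proportions per bin multiplied by bin number.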

Row | Variant | protein stability index
1 | NSISSDKEATVPITEILTEKKDTI | 5.54
2 | NSISSDKEATVPKTEILTEKKDTI | 5.4
3 | NSISSDKEATVPLTEILTEKKDTI | 5.25
4 | NSISSDKEATVPMTEILTEKKDTI | 5.59
5 | NSISSDKEATVPNTEILTEKKDTI | 5.7
6 | NSISSDKEATVPPTEILTEKKDTI | 5.35
7 | NSISSDKEATVPQTEILTEKKDTI | 5.57
8 | NSISSDKEATVPRTEILTEKKDTI | 4.99
9 | NSISSDKEATVPSTEILTEKKDTI | 5.65
10 | NSISSDKEATVPTTEILTEKKDTI | 5.66
11 | NSISSDKEATVPVTEILTEKKDTI | 5.58
12 | NSISSDKEATVPWTEILTEKKDTI | 5.06
13 | NSISSDKEATVPYTEILTEKKDTI | 5.01
14 | NSISSDKEATVPCAEILTEKKDTI | 5.36
15 | NSISSDKEATVPCCEILTEKKDTI | 5.39
16 | NSISSDKEATVPCDEILTEKKDTI | 5.88
17 | NSISSDKEATVPCEEILTEKKDTI | 5.49
18 | NSISSDKEATVPCFEILTEKKDTI | 4.93
19 | NSISSDKEATVPCGEILTEKKDTI | 5.09
20 | NSISSDKEATVPCHEILTEKKDTI | 5.45
21 | NSISSDKEATVPCIEILTEKKDTI | 5.21
22 | NSISSDKEATVPCKEILTEKKDTI | 5.49
23 | NSISSDKEATVPCLEILTEKKDTI | 4.99
24 | NSISSDKEATVPCMEILTEKKDTI | 5.12

Row | Variant | protein stability index
25 | NSISSDKEATVPCNEILTEKKDTI | 5.42
26 | NSISSDKEATVPCPEILTEKKDTI | 5.45
27 | NSISSDKEATVPCQEILTEKKDTI | 5.13
28 | NSISSDKEATVPCREILTEKKDTI | 5.33
29 | NSISSDKEATVPCSEILTEKKDTI | 5.36
30 | NSISSDKEATVPCVEILTEKKDTI | 5.42
31 | NSISSDKEATVPCWEILTEKKDTI | 4.74
32 | NSISSDKEATVPCYEILTEKKDTI | 5.1
33 | NSISSDKEATVPCTAILTEKKDTI | 5.24
34 | NSISSDKEATVPCTCILTEKKDTI | 4.8
35 | NSISSDKEATVPCTDILTEKKDTI | 5.45
36 | NSISSDKEATVPCTFILTEKKDTI | 4.46
37 | NSISSDKEATVPCTGILTEKKDTI | 4.92
38 | NSISSDKEATVPCTHILTEKKDTI | 5.04
39 | NSISSDKEATVPCTIILTEKKDTI | 4.25
40 | NSISSDKEATVPCTKILTEKKDTI | 4.92
41 | NSISSDKEATVPCTLILTEKKDTI | 4.57
42 | NSISSDKEATVPCTMILTEKKDTI | 4.68
43 | NSISSDKEATVPCTNILTEKKDTI | 5.23
44 | NSISSDKEATVPCTPILTEKKDTI | 5.16
45 | NSISSDKEATVPCTQILTEKKDTI | 5.32
46 | NSISSDKEATVPCTRILTEKKDTI | 4.9
47 | NSISSDKEATVPCTSILTEKKDTI | 5.34
48 | NSISSDKEATVPCTTILTEKKDTI | 5.46

Row | Variant | protein stability index
49 | NSISSDKEATVPCTVILTEKKDTI | 4.66
50 | NSISSDKEATVPCTWILTEKKDTI | 4.13
51 | NSISSDKEATVPCTYILTEKKDTI | 4.68
52 | NSISSDKEATVPCTEALTEKKDTI | 5.53
53 | NSISSDKEATVPCTECLTEKKDTI | 5.27
54 | NSISSDKEATVPCTEDLTEKKDTI | 5.81
55 | NSISSDKEATVPCTEELTEKKDTI | 5.62
56 | NSISSDKEATVPCTEFLTEKKDTI | 5.19
57 | NSISSDKEATVPCTEGLTEKKDTI | 5.11
58 | NSISSDKEATVPCTEHLTEKKDTI | 5.49
59 | NSISSDKEATVPCTEKLTEKKDTI | 5.64
60 | NSISSDKEATVPCTELLTEKKDTI | 5.51
61 | NSISSDKEATVPCTEMLTEKKDTI | 5.49
62 | NSISSDKEATVPCTENLTEKKDTI | 5.47
63 | NSISSDKEATVPCTEPLTEKKDTI | 5.52
64 | NSISSDKEATVPCTEQLTEKKDTI | 5.65
65 | NSISSDKEATVPCTERLTEKKDTI | 5.57
66 | NSISSDKEATVPCTESLTEKKDTI | 5.41
67 | NSISSDKEATVPCTETLTEKKDTI | 5.63
68 | NSISSDKEATVPCTEVLTEKKDTI | 5.45
69 | NSISSDKEATVPCTEWLTEKKDTI | 5.26
70 | NSISSDKEATVPCTEYLTEKKDTI | 5.12
71 | NSISSDKEATVPCTEIATEKKDTI | 5.8
72 | NSISSDKEATVPCTEICTEKKDTI | 5.51

Row | Variant | protein stability index
73 | NSISSDKEATVPCTEIDTEKKDTI | 5.46
74 | NSISSDKEATVPCTEIETEKKDTI | 5.78
75 | NSISSDKEATVPCTEIFTEKKDTI | 5.29
76 | NSISSDKEATVPCTEIGTEKKDTI | 5.64
77 | NSISSDKEATVPCTEIHTEKKDTI | 5.21
78 | NSISSDKEATVPCTEIITEKKDTI | 5.34
79 | NSISSDKEATVPCTEIKTEKKDTI | 5.46
80 | NSISSDKEATVPCTEIMTEKKDTI | 5.28
81 | NSISSDKEATVPCTEINTEKKDTI | 5.4
82 | NSISSDKEATVPCTEIPTEKKDTI | 5.62
83 | NSISSDKEATVPCTEIQTEKKDTI | 5.4
84 | NSISSDKEATVPCTEIRTEKKDTI | 5.45
85 | NSISSDKEATVPCTEISTEKKDTI | 5.57
86 | NSISSDKEATVPCTEITTEKKDTI | 5.71
87 | NSISSDKEATVPCTEIVTEKKDTI | 5.18
88 | NSISSDKEATVPCTEIWTEKKDTI | 4.52
89 | NSISSDKEATVPCTEIYTEKKDTI | 5.37
90 | NSISSDKEATVPCTEILAEKKDTI | 4.93
91 | NSISSDKEATVPCTEILCEKKDTI | 5.05
92 | NSISSDKEATVPCTEILDEKKDTI | 5.72
93 | NSISSDKEATVPCTEILEEKKDTI | 5.63
94 | NSISSDKEATVPCTEILFEKKDTI | 5.48
